Test results from article PMC3931628.

Legend:
[1] = molecular target: nectin-1 (human (endogenous in primary tonsil epithelial cells)) (UniProt Q15223)
[2] = molecular target: nectin-1 (human (endogenous in primary tonsil epithelial cells)) (UniProt Q15223); remark: listed apart in the source

Sequence of UniProt Q15223 (Q15223 31-517): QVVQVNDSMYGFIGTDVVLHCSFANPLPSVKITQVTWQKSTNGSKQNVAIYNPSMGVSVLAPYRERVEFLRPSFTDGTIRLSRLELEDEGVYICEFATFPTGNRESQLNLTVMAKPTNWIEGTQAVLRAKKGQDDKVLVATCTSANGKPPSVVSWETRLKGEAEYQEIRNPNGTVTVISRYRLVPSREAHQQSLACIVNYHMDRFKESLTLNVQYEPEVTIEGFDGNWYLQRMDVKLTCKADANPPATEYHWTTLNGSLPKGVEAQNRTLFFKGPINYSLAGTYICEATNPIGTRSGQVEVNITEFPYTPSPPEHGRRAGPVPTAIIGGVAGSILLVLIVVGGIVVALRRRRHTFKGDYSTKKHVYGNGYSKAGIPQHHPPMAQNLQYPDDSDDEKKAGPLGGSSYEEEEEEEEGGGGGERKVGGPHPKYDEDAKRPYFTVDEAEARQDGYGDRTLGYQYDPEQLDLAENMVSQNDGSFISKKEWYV

## truncated form of HSV-1 gD ectodomain gD(306t) (domain or fragment)
[1]
  HSV-1 plaque numbers in polarized tonsil cells treated with active tat/gp120; reduction by anti-gD antibodies (10 µg/ml): 30%
  HSV-1 plaque numbers in polarized tonsil cells treated with active tat/gp120; reduction by anti-nectin-1 antibodies (10 µg/ml): 40%
  HSV-1 plaque numbers in polarized tonsil cells treated with active tat/gp120; reduction by the combination of anti-gD and anti-nectin-1 antibodies: 60%
  HSV-1 plaque size (infected cells per plaque, cell-to-cell spread) in polarized tonsil cells treated with active tat/gp120; reduction by anti-gD antibodies (10 µg/ml): 60%
  HSV-1 plaque size (infected cells per plaque, cell-to-cell spread) in polarized tonsil cells treated with active tat/gp120; reduction by anti-nectin-1 antibodies (10 µg/ml): 50%
  HSV-1 plaque size (infected cells per plaque, cell-to-cell spread) in polarized tonsil cells treated with active tat/gp120; reduction by the combination of anti-nectin-1 and anti-gD antibodies: 70%
[2]
  HSV-1 infection (percent of infected cells, 24 h) of polarized tonsil cells treated with active tat/gp120 or HIV virions; reduction by preincubation with anti-nectin-1 antibody CK-8 (10 µg/ml): 70%
